From article PMC7644594

Target: EPHA2 tagged with a fluorescent protein for FRET (EPHA2-mClover3, EPHA2-mRuby3) (human) (UniProt P29317)
Assay: FRET or BRET

- N-FRET: 0.347
Substance: EPHA2 tagged with a fluorescent protein for FRET (EPHA2-mClover3, EPHA2-mRuby3) (from UniProt P29317 24-976) (receptor)
